Common to all, as to experiment: purified protein
The test system of data set [1] is CC(=O)Oc1ccc([N+](=O)[O-])cc1. The note with it: pH 8.0; 25.0 °C.
The next data set relates to CC(=O)Oc1ccccc1. The note with it: pH 8.0; 25.0 °C.
Data set [2] deals with CCCC(=O)Oc1ccc([N+](=O)[O-])cc1. The note with it: pH 8.0; 25.0 °C.
In the next data set the test system is O=C1CCc2ccccc2O1. The note with it: pH 7.4; 25.0 °C.

Data on one substance can be found in paper doi:10.1101/416081v1.

reTAPON1-LIKE (Trichoderma atroviride): the Km (in general, the substrate concentration at which the rate is half of its maximum) in data set [1] is 1120 ± 140 µM; in the data set on CC(=O)Oc1ccccc1, 890 ± 60 µM; in data set [2], 1580 ± 120 µM; with O=C1CCc2ccccc2O1, 730 ± 10 µM.
